Reference: the supplement of paper PMC12042874
± gives the uncertainty stated by the source.

Test: amyloid nucleation score (Sup35N fusion, yeast selection) (log enrichment); library NNK1; higher = more nucleation; inactive = no reads after selection
Outline: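 The nucleation score is a DiMSum log enrichment of output over input reads, centred on the mode score of non-aggregating sequences. Sequences under 100 input reads were excluded, and reads came from Illumina sequencing of plasmid inserts. Psi-negative yeast expressing Sup35N fused to peptides of 20 random codons were induced with 100 μM copper sulfate for 24 hours and grown 7 days at 30°C on medium lacking adenine and uracil. Random libraries had three technical output replicates.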

Substance | amyloid nucleation score
VVDVQALSWSRGADLSSW | 1.02 ± 0.68
VVEFCCVQT | -1.53 ± 1.7
VVEIWR | 0.655 ± 0.6
VVGSMVRSGLGPQPMTS | 1.08 ± 0.68
VVIVN | 0.439 ± 0.47
VVLPWSFIWRCGVERQ | -0.812 ± 0.42
VVMYRALTNHN | 0.949 ± 0.59
VVQGVTCSLIMYSTRNCLFR | -0.444 ± 1.6
VVRAFLTLILAVIDEENGSE | -1.42 ± 2.7
VVRPAPRDKPTGPSLCLWGN | 0.086 ± 0.42
VVSMSQEVEAPRAPHMAAFK | 0.25 ± 0.53
VVSNVPVWTSGYYHHCCHRC | 0.856 ± 0.79
VVSSRSIMGTVRMNEKVVAT | -0.563 ± 0.46
VVTRWLASNNDGGIESLLIK | 0.132 ± 0.33
VVVSLK | -0.916 ± 0.86
VWARVMNAYFDTSH | -1.22 ± 2.4
VWFCIYAFVHSYGLYVVSMV | -0.03 ± 0.31
VWFFQNNVNFSDKQ | 8.011 ± 0.045
VWIICQHGG | 4.09 ± 0.11
VWLPYIFIDTSY | inactive
VWPAQGS | -0.325 ± 0.8
VWRHGHNELRIRYAVSLYM | 0.608 ± 0.46
VWRSFSGNITCMLFYNFPVR | -0.621 ± 0.95
VWSKVLGSGRWSVVRGRAWR | 1.63 ± 0.21
VWSNMCFLIDSI | -0.491 ± 0.3
VWVHKAY | -0.021 ± 1.2

Substance | amyloid nucleation score
VWYVLMSSSVTYYLSR | -0.075 ± 0.55
VYEYFRLAGGAIQIAGIPVA | -0.002 ± 0.72
VYFGRISLWLNMH | -0.449 ± 0.59
VYGVRAIR | 0.503 ± 0.61
VYHIYDG | -0.662 ± 0.43
VYLFSVLVDVSRMSNGMLTR | -0.211 ± 1.2
VYLKKSLFL | -0.484 ± 0.9
VYMSIRYRGSDNIRICVSVR | -0.13 ± 0.43
VYSQINSRHWEFMDLELSLG | 0.147 ± 0.93
VYSYYLLLGLW | 3.66 ± 0.084
VYVVGLFQLVSITFLCRITV | 0.153 ± 0.22
VYYYVNTVCWSARFHVGSGR | -0.561 ± 0.74
WAIFLVR | -2.31 ± 2.4
WASGRGSSVRIKQLPHDRQQ | -0.779 ± 0.43
WAVGVRSQLWVARQAKVMGG | 0.741 ± 0.69
WAYVAALRGYCYVGGRYLYT | -0.91 ± 1.2
WCCGLCVLMQLNTVMLSKGL | 5.33 ± 0.066
WCMGHNSYYVKEIVIDVLWL | inactive
WCTATGVSRFTMGIKTCHCL | 0.738 ± 0.38
WCTTVRIRLYGSSIWRLFGA | 0.76 ± 0.45
WCVWFVQISCMVRVGAKLNS | 0.184 ± 0.38
WCYVYRSRRVSMTSWVLRTQ | 0.19 ± 0.26
WDAHGDIVKG | 0.877 ± 1
WDALLPLPAEFAYRATTMHA | 0.444 ± 1.1
WDKFC | -1.16 ± 0.88
WDKWI | 0.418 ± 0.49

Substance | amyloid nucleation score
WDTTVWMIPFNARVFFVGLC | -0.083 ± 0.35
WETWYSVCYAIEIRSYKIRV | -1.3 ± 1
WFEVNSACQLSNLGGLTEFR | -0.417 ± 1.4
WFFVDSVYIRNKFSLEKGSA | 7.494 ± 0.052
WFTAFARK | 3.41 ± 0.11
WFVNWWEYVL | 0.042 ± 0.9
WGDLHRMVMISREVEPVSNI | -0.361 ± 0.78
WGICAVLHLMTIIGLIRVER | inactive
WGMIWCTIYGSVSNNNINLV | 4.2 ± 0.053
WGTPLMV | 0.31 ± 0.63
WHELRMCIVMDFLLMLQKMI | 1.79 ± 0.44
WIFIGTIPILLIGDRRSANV | 6.35 ± 0.066
WIFQY | 1.43 ± 0.72
WINKYYDLN | 0.472 ± 0.42
WITTMHNLHELNHRGPPPKL | -0.972 ± 1.8
WIVCCMWVYVLSLQL | -1.06 ± 0.4
WIVHCVEFALYGLGF | 1.33 ± 0.79
WIWYFLGRGGYVACRSTKVW | 0.016 ± 1.2
WKDRPRVCLFMLLNENGRQM | -0.831 ± 1.2
WKFALSLTRSDWAGHGPGHE | 2.02 ± 0.16
WKGLRYLNFYFTE | 4.52 ± 0.059
WKLPWALSRPVKYRYHEVGR | 0.225 ± 0.43
WLDAVGMAAG | -0.989 ± 2.7
WLGVNDSLGFICEAVGWYGW | 0.604 ± 0.63
WLGYMDMDNGARQNQYSETG | -0.942 ± 1.4
WLIQE | 1.24 ± 0.71

Substance | amyloid nucleation score
WLLREIERMDLGDWQLELNI | -0.707 ± 0.83
WLSGYKSQMVK | -0.291 ± 0.78
WLSSLARIWSRQMREYNS | 0.64 ± 0.44
WLTKSEN | -0.151 ± 0.27
WLVLTMS | 0.086 ± 0.36
WMTHWVLSYTTNLLIWVHGW | 0.005 ± 1.2
WMTTEIRRAIIEIRSVLWTS | 0.33 ± 0.55
WMVSSVIRARGL | 3.23 ± 0.12
WMYDSLDTSMTLANSHLQTL | -0.098 ± 0.51
WNFLFSCLMLGSSWMACDWQ | -0.305 ± 0.76
WNIGYNFVSDSLPPRNYFVE | -0.198 ± 0.37
WNISSTFGYGNHWLG | 0.816 ± 0.52
WNMFGS | 0.848 ± 0.29
WNNVGNTCMEPRSSLGCTLR | 0.147 ± 0.51
WNQIAYNYRMLMLYFVTHYW | 0.327 ± 0.5
WNRFRIMQLDITG | 0.103 ± 0.22
WNSFTELRAHMLYHLKKIII | 1.72 ± 0.22
WNSSFLHRLWEGSNLSARCC | inactive
WNTMWRHLGIYFKY | 0.249 ± 0.38
WPCPVVRFLPWKNYISGYSF | 0.392 ± 0.64
WPGFLSRWIRLRLDWSHEV | -1.06 ± 1.1
WQCDLNDLLVCTFSMLGYGR | -1.05 ± 1.7
WQFYTVL | -0.246 ± 0.31
WQLLKKCP | -0.576 ± 0.41
WQLYIEYFE | 0.128 ± 0.36
WREGDI | -0.294 ± 1.2

Substance | amyloid nucleation score
WREYRLWDEG | -0.208 ± 0.36
WRGGKRHVAIFSISYSGTN | 0.9 ± 0.57
WRGLPSNG | 0.024 ± 0.36
WRILYRC | 0.41 ± 0.34
WRLRCLRELV | -0.542 ± 0.65
WRQWKTLTARLTAMKA | -0.178 ± 0.33
WRSSHINLGGIFRLSHTIYC | -0.16 ± 0.38
WRSSHNDKMSY | -0.889 ± 0.46
WRSVPRASFRNWSLWDPLYT | 0.453 ± 0.29
WRVHSNKRKLGSCLLTGTIF | 0.656 ± 0.5
WSCLSSLRDLGNGGYMM | 0.05 ± 0.62
WSKTSDDSVWWTWTDGIMFV | 1.92 ± 0.46
WSLNERQNMLHLHRLTASLG | -0.088 ± 0.88
WSNTCRASYFRPCGCG | 0.391 ± 0.39
WSPEMNVVKFTLFYNRSSRF | 7.13 ± 0.078
WSRTNMIYNPSVGAIYRV | -0.021 ± 0.41
WSTFYLFLSLDWKNYT | inactive
WSVLCSFRSSSNQAFVFRVQ | -0.827 ± 0.77
WTFGLGSGVSGVSLERGPLG | -0.622 ± 1.7
WTIWVKDSLVPVCTSF | -1.03 ± 1.2
WTMNLLA | -0.048 ± 0.16
WTQAPDSAVGDGWGSNGSEA | 0.013 ± 0.47
WTSMGTHTFSVRNRSGPHNG | 1.22 ± 0.62
WTSSVFSIAHPVRYVRFYAV | 0.307 ± 0.54
WTVMVNICLGHCRVLSQLVP | 1.79 ± 0.24
WVAVRDMKGYRSRKKGQSWH | 0.199 ± 0.5
